The target in series [1] is T1, human recombinant IFN-γ, P01579.
T1 chain: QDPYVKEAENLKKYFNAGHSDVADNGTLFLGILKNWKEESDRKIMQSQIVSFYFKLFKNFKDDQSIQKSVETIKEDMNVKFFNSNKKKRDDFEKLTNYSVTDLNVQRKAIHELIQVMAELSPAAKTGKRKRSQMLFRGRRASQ

For another series, the target named is T2, D-val-leu-lys-pNA.
T2 chain: VLK

Series [2] concerns the target human recombinant TNF-α, P01375.
The target of series [3] is T3, mouse recombinant IFN-γ, P01580.
T3 chain: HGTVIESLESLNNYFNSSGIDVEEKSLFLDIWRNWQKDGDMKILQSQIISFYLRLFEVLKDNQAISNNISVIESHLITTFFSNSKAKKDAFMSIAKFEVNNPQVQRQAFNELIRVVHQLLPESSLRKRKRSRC

Series [4] has as its target T4, mouse recombinant TNF-α, P06804.
T4 chain: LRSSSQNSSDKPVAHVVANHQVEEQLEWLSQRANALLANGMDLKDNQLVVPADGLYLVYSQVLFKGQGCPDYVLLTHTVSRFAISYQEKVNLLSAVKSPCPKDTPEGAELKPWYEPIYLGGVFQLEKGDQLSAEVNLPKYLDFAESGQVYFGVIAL

Sequence of human recombinant TNF-α, P01375 (P01375 77-233): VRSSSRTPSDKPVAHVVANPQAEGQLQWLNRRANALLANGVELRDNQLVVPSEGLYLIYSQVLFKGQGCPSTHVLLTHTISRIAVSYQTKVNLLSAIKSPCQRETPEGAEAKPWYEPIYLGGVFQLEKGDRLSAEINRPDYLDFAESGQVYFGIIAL

B1: Aspergillus oryzae 26 kDa protease (protein)
chain: HASADAWASSKAISSTSSPSSFKMRFISVSSLLLALAPALNAVPVEVAGSAQGLDVTLSQVGNTRIKAWKNTGSEDVTFVHLNFFKDAAPVQKVSLFRNATEVQFQGIKQRLITEGLSDDALTTLAPGATIEDEFDIASTSDLSEGGTITINSNGLVPITTDNKVTGYIPFTSNELSIDVDAAEAASVTQAVKILERRTKVTSCSGSRLSALQTALRNTVSLARAAATAAQSGSSSRFQEYFKTTSSSTRSTVAARLNAVANEAASTSSGSTTYYCSDVYGYCSSNVLAYTLPSYNIIANCDLYYSYLPALTSTCHAQDQATTTLHEFTHAPGVYSPGTDDLGYGYSAATALSASQALLNADTYALFANAVNLNC
With B1, in series [1], the “Proteolysis by Western blotting” value was “both deuterolysin and 26 kDa protease cleave human IFN-γ”. In the series with salmon protamine sulfate, this protein came in with a Specific activity: hydrolysis of salmon protamine (ninhydrin assay) (nmoles Leucine/30 min./µg protein) of 679. Besides, the Specific activity: hydrolysis of Val-leu-lys-pNA (absorbance at 405 nm) (mOD/min/µg protein) with D-val-leu-lys-pNA worked out at 2.1. Also, the “Proteolysis by Western blotting (50 ng cytokine, 2.5-10 ng protease, overnight at 37° C.)” value in series [2] is “Alkaline protease and, to a lesser extent, 26 kDa protease each produced a similar pattern of cleavage”.

B2: Aspergillus oryzae alkaline protease (protein)
chain: GLTTQKSAPWGLGSISHKGQQSTDYIYDTSAGEGTYAYVVDSGVNVDHEEFEGRASKAYNAAGGQHVDSIGHGTHVSGTIAGKTYGIAKKASILSVKVFQGESSSTSVILDGFNWAANDIVSKKRTSKAAINMSLGGGYSKAFNDAVENAFEQGVLSVVAAGNENSDAGQTSPASAPDAITVAAIQKSNNRASFSNFGKVVDVFAPGQDILSAWIGSSSATNTISGTSMATPHIVGLSLYLAALENLDGPAAVTKRIKELATKDWKDVKGSPNLLAYNGNA
For the protein B2, the “Proteolysis by Western blotting” value was “the protease did not cleave human IFN-γ” in series [1], “alkaline protease (AP) purified from the protease powder prepared according to Example 1 evidenced the same substrate specificity” in series [3] and “alkaline protease (AP) purified from the protease powder prepared according to Example 1 evidenced the same substrate specificity” in series [4]. Moreover, the Specific activity: hydrolysis of salmon protamine (ninhydrin assay) (nmoles Leucine/30 min./µg protein) in the series with salmon protamine sulfate is 951. The Specific activity: hydrolysis of Val-leu-lys-pNA (absorbance at 405 nm) (mOD/min/µg protein) with D-val-leu-lys-pNA is 117. Moreover, the “Proteolysis by Western blotting (50 ng cytokine, 2.5-10 ng protease, overnight at 37° C.)” value in series [2] is “Alkaline protease and, to a lesser extent, 26 kDa protease each produced a similar pattern of cleavage”.

B3: Aspergillus oryzae deuterolysin (neutral protease II) (protein)
chain: TEVTDCKGDAESSLTTALSNAAKLANQAAEAAESGDESKFEEYFKTTDQQTRTTVAERLRAVAKEAGSTSGGSTTYHCNDPYGYCEPNVLAYTLPSKNEIANCDIYYSELPPLAQKCHAQDQATTTLHEFTHAPGVYQPGTEDLGYGYDAATQLSAQDALNNADSYALYANAIELKC
B3: the “Proteolysis by Western blotting” value in series [1] was “both deuterolysin and 26 kDa protease cleave human IFN-γ”. In addition, in the series with salmon protamine sulfate, the Specific activity: hydrolysis of salmon protamine (ninhydrin assay) (nmoles Leucine/30 min./µg protein) was 677. In the series with D-val-leu-lys-pNA, this protein showed a Specific activity: hydrolysis of Val-leu-lys-pNA (absorbance at 405 nm) (mOD/min/µg protein) of 2.3. In addition, in series [2], the “Proteolysis by Western blotting (50 ng cytokine, 2.5-10 ng protease, overnight at 37° C.)” value is listed as “deuterolysin was without significant effect”.

(Values after patent US20090068174.)
